In patent publication US20240109945A1 (UNIVERSITY OF GEORGIA RESEARCH FOUNDATION, published 2024):

T1: Asialofetuin (bovine, UniProt P12763 19-359, glycoprotein; desialylated form of Fetuin)
T1 construct: also called AF; desialylated Asialofetuin
T1 sequence (looked up): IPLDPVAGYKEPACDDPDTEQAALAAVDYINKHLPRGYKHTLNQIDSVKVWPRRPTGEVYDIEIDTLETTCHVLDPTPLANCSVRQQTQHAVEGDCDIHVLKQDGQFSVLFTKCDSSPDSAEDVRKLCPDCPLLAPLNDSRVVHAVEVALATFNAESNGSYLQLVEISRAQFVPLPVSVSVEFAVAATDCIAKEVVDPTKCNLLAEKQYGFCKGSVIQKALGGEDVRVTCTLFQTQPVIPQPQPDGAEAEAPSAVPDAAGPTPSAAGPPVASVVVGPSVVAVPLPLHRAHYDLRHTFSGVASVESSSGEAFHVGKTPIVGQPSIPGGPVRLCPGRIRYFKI

T2: Fetuin (bovine, UniProt P12763 19-359, heavily sialylated glycoprotein)
T2 sequence (looked up): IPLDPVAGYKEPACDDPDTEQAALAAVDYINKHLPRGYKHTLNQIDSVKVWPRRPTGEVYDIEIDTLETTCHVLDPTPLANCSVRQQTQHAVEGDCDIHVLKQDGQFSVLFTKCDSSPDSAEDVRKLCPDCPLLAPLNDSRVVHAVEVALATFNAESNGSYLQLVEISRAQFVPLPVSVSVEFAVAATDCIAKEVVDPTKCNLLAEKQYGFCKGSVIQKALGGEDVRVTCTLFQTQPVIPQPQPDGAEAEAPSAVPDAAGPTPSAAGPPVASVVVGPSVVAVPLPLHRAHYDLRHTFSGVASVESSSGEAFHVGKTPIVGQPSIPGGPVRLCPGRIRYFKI


Legend:
Asialofetuin = target: T1, Asialofetuin; assay: Western blot, 1 µg glycoprotein, Fbs1 variant as probe
Protocol: (§1) Lanes of each blot are labelled to show results for samples (1 μg each) of glycoproteins Asialofetuin, Fetuin, RNase B, Ovalbumin, Horse Radish Peroxidase, and IgG polyclonal antibody from rabbit, and a non-glycosylated protein RNase A, that were separated by SDS-PAGE, blotted on nitrocellulose membrane, and probed with Fbs1-1 (left blot) or Fbs1-2 (right blot).

Fetuin = target: T2, Fetuin; assay: as above
Protocol: as §1

binding result (Asialofetuin)	binding result (Fetuin)	Binder
binds	binds	Variant Fbs1-1 (designed binder, Expressed in E. coli and purified by IMAC) MGSSHHHHHHHHSSGENLYFQSHMASQQEGLVPEGSADEERDHWQQFYFLSKRRRNLLRNPCGEEDLEGWSDVEHGGDGWRVEELPGDNGVEFTQDDSVKKYFASSFEWCRKAQVIDLQAEGYWEELLDTTQPAIVVKDWYSGRTDAGSLYELTVRLLSENEDVLAEFATGQVAVPEDGSWMEISHTFIDYGPGVRFVRFEHGGQDSVYWKGWFGARVTNSSVWVEP
binds	binds	Variant Fbs1-2 (designed binder) MGSSHHHHHHHHSSGENLYFQSHMASQQEGLVPEGSADEERDHWQQFYFLSKRRRNLLRNPCGEEDLEGWSDVEHGGDGWRVEELPGDNGVEFTQDDSVKKYFASSYRWCRKAQVIDLQAEGYWEELLDTTQPAIVVKDWYSGRTDAGSLYELTVRLLSENEDVLAEFATGQVAVPEDGSWMEISHTFIDYGPGVRFVRFEHGGQDSVYWKGWFGARVTNSSVWVEP
